Two molecules from patent publication US8367390B2, “Galactanase variants” (Novozymes A/S, priority 2002, dated 2013) can be followed below.

Data set [1] can be described thus: pH profile of galactanase activity on lupin AZCL-galactan. It is filed as biochemical. Particulars: 15 min at 37° C., A590, unit assumed. The procedure:
The pH profiles of the purified variants described above were established as follows: Galactanase activity at various pH was measured by mixing 500 μl 4 mg/ml lupin AZCL-galactan (Megazyme, Australia) in water with 500 μl buffer (50 mM sodium acetate, 50 mM potassium dihydrogenphosphate, 50 mM boric acid, 1 mM CaCl2, 0.01% Triton X-100 adjusted to pH 2.5, 3.5, 4.5, 5.5, 6.5, 7.5, 8.5 or 9.5 with HCl/NaOH) and 25 μl purified enzyme diluted to about 0.5-2 μg/ml in water. The mixture was incubated 15 min at 37° C., insoluble material was removed by centrifugation, and absorbance in the supernatant was measured at 590 nm.

The format of data set [2] is biochemical. The procedure:
(§1) The activity on the galacto-oligosaccharide substrates prepared as described above and on the commercially available galactobiose (Gal2, Megazyme) was studied for the four purified galactanases HIGAL, MTGAL, AAGAL and BLGAL. The buffers and temperatures used were: 25 mM sodium acetate, 0.5 mM CaCl2, 0.005% Triton X-100, pH 6.5 at 37° C. for HIGAL and MTGAL, 50 mM sodium acetate, 1 mM CaCl2, pH 4 at 30° C. for AAGAL and 50 mM Mes, 1 mM CaCl2, pH 6.5 at 30° C. for BLGAL. Enzyme concentrations used were 0.8 μg/ml for HIGAL, 0.2 microgram/ml for MTGAL, and 10 micrograms/ml for AAGAL and BLGAL. With HIGAL and MTGAL substrate concentrations were all 0.25 mg/ml, whereas 0.34 mg/ml Gal2, 0.050 mg/ml Gal3 and 0.067 mg/ml Gal4 were used for AAGAL and BLGAL. Enzyme activity in samples withdrawn after various incubation times was inactivated by heating to 95° C. for 10 min. Compositions of reaction products were analysed using HPAE-PAD (Dionex) applying a PA-100 column and a linear gradient of sodium acetate (0-0.18 M) in 0.15 M NaOH. Response factors of the individual carbohydrates were estimated from reference runs with MeGal3, MeGal4, Gal, Gal2, Gal3 and Gal4. Selected results are shown in Tables 2-8 below (the figures indicating weight percentage of glactooligosaccharides).

The nature of data set [3]: Activity on galactobiose (Gal2). It counts as biochemical. To be noted: in 24 hours; buffer, pH and temperature per enzyme. The method, then:
as §1

Data set [4] can be described thus: Activity on galactotriose (Gal3). It counts as biochemical. To be noted: up to 24 hours; buffer, pH and temperature per enzyme. The method, then: as §1
Data set [5] is described as follows: Activity on galactan, products by HPAEC-PAD. It counts as biochemical. To be noted: 30° C.; BLGAL pH 6.5, AAGAL pH 4.0. The method, then:
Lupin galactan (Megazyme) was incubated with BLGAL (0.1-10 micrograms/ml) at pH 6.5 (50 mM MES, 1 mM CaCl2) and with AAGAL (0.1-10 μg/ml) at pH 4.0 (50 mM sodium acetate, 1 mM CaCl2) at 30° C. Samples were withdrawn after 45 min to 24 hours and enzyme inactivated by heating to 95° C. for 10 min. Reaction products were analyzed using HPAEC-PAD on a Dionex chromatographic system using a CarboPac PA-100 column and a linear gradient 0 to 0.3 M sodium acetate in 0.15 M NaOH. Purified galacto-oligosaccharides were used to identify products.

Data set [6] can be described thus: Degradation of MeGal4, products by HPAE-PAD. It counts as biochemical. To be noted: in words; buffer, pH and temperature per enzyme. The procedure: as §1

B1: AAGAL: GH Family 53 galactanase from Aspergillus aculeatus, SEQ ID NO: 3 (wild type parent) (protein, listed as Aspergillus aculeatus)
chain: ALTYRGADISSLLLLEDEGYSYKNLNGQTQALETILADAGINSIRQRVWVNPSDGSYDLDYNLELAKRVKAAGMSLYLDLHLSDTWADPSDQTTPSGWSTTDLGTLKWQLYNYTLEVCNTFAENDIDIEIISIGNEIRAGLLWPLGETSSYSNIGALLHSGAWGVKDSNLATTPKIMIHLDDGWSWDQQNYFYETVLATGELLSTDFDYFGVSYYPFYSASATLASLKTSLANLQSTYDKPVVVVETNWPVSCPNPAYAFPSDLSSIPFSVAGQQEFLEKLAAVVEATTDGLGVYYWEPAWIGNAGLGSSCADNLMVDYTTDEVYESIETLGEL
modifications: mat_peptide (1)..()
As for B1, the Galactanase activity at pH 2.5 in data set [1] (pH 2.5) amounted to 73%. In data set [1] (pH 3.5), the Galactanase activity at pH 3.5 turned out to be 100%. Besides, the Galactanase activity at pH 4.5 in data set [1] (pH 4.5) is 83%. Moreover, the Galactanase activity at pH 5.5 in data set [1] (pH 5.5) was 47%. The same molecule returned a Galactanase activity at pH 6.5 in data set [1] (pH 6.5) of 32%. Also, in data set [1] (pH 7.5), the Galactanase activity at pH 7.5 worked out at 0%. For the same molecule, the Galactanase activity at pH 8.5 in data set [1] (pH 8.5) is 2%. The Galactanase activity at pH 9.5 in data set [1] (pH 9.5) is 0%. In addition, the “Products of Gal4 (galactotetraose) degradation” value in data set [2] is “about equimolar amounts of galactose, galactobiose and galactotriose”. In data set [3], the “Activity on Gal2” value is reported as “Neither of the enzymes HIGAL, MTGAL, AAGAL or BLGAL had any detectable activity”. Besides, the “Activity on Gal3, products” value in data set [4] was “degraded Gal3 to Gal2 and Gal”. Also, the “Initial products from lupin galactan” value in data set [5] is on record as “initially produces a more homogeneous mixture of galactooligomers”.

B2: BLGAL: GH Family 53 galactanase from Bacillus licheniformis, SEQ ID NO: 4 (wild type parent) (protein, listed as Bacillus licheniformis)
chain: AHRDSGTAKSGLYVEKVSGLRKDFIKGVDVSSIIALEESGVAFYNESGKKQDIFNTLKEAGVNYVRVRIWNDPYDANGNGYGGGNNDLEKAIQIGKRANANGMKLLADFHYSDFWADPAKQKAPKAWANLNFEDKKTALYQYTKQSLKAMKAAGIDIGMVQVGNETNGGLAGETDWAKMSQLFNAGSQAVRETDSNILVALHFTNPETSGRYAWIAETLHRHHVDYDVFASSYYPFWHGTLKNLTSVLTSVADTYGKKVMVAETSYTYTAEDGDGHGNTAPKNGQTLNNPVTVQGQANAVRDVIQAVSDVGEAGIGVFYWEPAWIPVGPAHRLEKNKALWETYGSGWATSYAAEYDPEDAGKWFGGSAVDNQALFDFKGRPLPSLHVFQYVDTGTPFKN
Consider B2, for which the “Products of Gal4 (galactotetraose) degradation” value in data set [2] is “degrades galactotetraose mainly to galactose and galactotriose”. Moreover, the “Products from MeGal4” value in data set [6] is “MeGal and Gal3”. For the same molecule, the “Activity on Gal2” value in data set [3] is “Neither of the enzymes HIGAL, MTGAL, AAGAL or BLGAL had any detectable activity”. Also, the “Activity on Gal3, products” value in data set [4] is “no visible activity on Gal3 after 24 hours”. The “Initial products from lupin galactan” value in data set [5] is “initial main product is galactotetraose with both smaller and larger oligomers also present”.
